According to the RNAGym collection of RNA variant scans (doi:10.1073/pnas.2313332121):
Variants at the floor of the assay were thinned out.

B1: TPR 5TU (parent)
chain: GGAUCUUCUCGAUCUAACAAAAAAGACAAAUCUGCCACAAAGCUUGAGAGCAUCUUCGGAUGCAGAGGCGGCAGCCUUCGGUGGCGCGAUAGCGCCAACGUUCUCAACUAUGACACGCAAAACGCGUGCUCCGUUGAAUGGAGUUUAUCAUG

Variants of: B1
Experiment: polymerase ribozyme fitness, log enrichment relative to wild type (log ratio); higher = more active; in vitro selection for triplet polymerase activity
Procedure, shortened: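 To select mutant libraries of each subunit of a heterodimeric triplet polymerase ribozyme, built by PCR and transcribed, each was annealed with a biotinylated primer, partner subunit and triplets, then incubated frozen at −7 °C. Extended constructs were gel-excised, captured on streptavidin beads and amplified by RT-PCR, in one round carried out in triplicate. Illumina sequencing of input and output libraries kept genotypes with ≥10 input reads and ≥1 read per output. Fitness is the base-2 logarithm of genotype enrichment relative to wild-type enrichment, from inverse-variance-weighted replicate averages.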

Variant | polymerase ribozyme fitness (log ratio)
GGCUCUCCUCGAUCUAACAAAAAAGACAAAUCUGCCACAAAGCUUGCGAGCAUCAUCGAAUGCAGAGGCGGCUGCCUUCGGGGGCGCGAUAGCGCCAACGUUCUCAACUAUGACACGCAAAACGCGUGCUCCGUUGAAUGGAGUUCAUCAUG | ≤ -4.2
GGCUCUACUUGAUCUAACAAAAAAGACAAAUCUGCCACAAAGCUUGAGAGCAACUUCGGAUGCAGAGGCGGCAGCCUUCGGUGGCGCGAUACCGCCAACGUUCUCAACUAUGACACGCAAAACGCGUGCUCCGUUGAGUGGAGUUUAUCAUG | ≤ -4.2
GGGUCUUCUCGAUCUAACAAAAAAGACAAAUCUGCCACAAAGCUUGGGAGCAUCUUCGGAAGCAGAGGCGGCAGCCUUCGGUGGCGCGAUAGCUCCAAAGUUCUCAAUUAUGACACGCAAAACGCGUGCUCCGUGGAAUGGAGUUUAUCAUG | ≤ -4.2
GGCACUUCUCGAUCUAACAAAAAAGACAAAUCUGCCACAAAGCUUGAGAGCAUCUUCGGAUGCAGAGGCGUCAGCCUUCGGUGGCGCAAUAGCGCCAACGUUCUCAACUAUGACACGCAAAACGCGUGCUCCGUUGAAUGGAGUUUAUCAUG | ≤ -4.2
GGGUCUUCUCGCUCUAACAAAAAAGACAAAUCUGCCCCAAAGCUUGAACGCAUCUUCGGAUGCAGAGGCGGCAGCCUGCGGUGGCAGGAUAGCGCCAAUGUUCUCAACUAUGACACGCAAAACGCGUGCUCCGUUGAAUGGCGUUGAUCAUG | ≤ -4.2
GGGUCUUCUCGAUCUAACACAAAAGACAAAUCUGCCACAAAGCUUGAGAGCAUCUUCGGAUGCACAGCCGGCAGCCUUCGGUGGCGCGAUAGCGCCAGCGUUCUCAACUAUGACACGCAAAACGCGUGCUCCGUUGAAUGGAGUUUAUUAUU | ≤ -4.2
GGCUCGUCUCGAUCUAACAAACAAGACACAUCUGCCACAAAGCUUGAGAGCAUCUUCGGAUGCAGAGGCGGCAGCCUUCGGUGGGGCGAUAGUGCCAACGUUCUCAAGUAUGACACGCAAAACGCGUGCUCCGUUGAAUGGAAUUUAUCAUG | ≤ -4.2
GGGUCUUCUCGAUGUCACAAAAAAGACAAAUCUGCCACAAAGCUUGAGAGCAUCUUCGGAUGCAGAGGCGGCAGCCUUCGGCGGCGCGAUAGCGCCAACGUUCUCAACUAUGACACGCAAAACGCGUGGUACGUUGAAUGGAGUUUAUCAUG | ≤ -4.2
GGGUCUUCUCGAUCUAACAAAAAAGACAAAUCUGCCACAAAGCUUGAGAGCAUCUUCGGAUGCAGAGGCGGCAGCCUUCGGUGGCGCGAUAGCGCCCACGUUCUCAGCUAUGACACGCAAAACGCGUGCUCCGUUGAAUGGAGUUUAUCAUG | ≤ -4.2
GGCUCUUCUCGAUCUAACAAAAAAGACAAAGCUGCCACAAAGCUUGAGAGCCUCUACGGAGGCAGAGGCGGCAGCCUUCGGUGGCGCGAUCGCGCCAACGUUCUCAAGUAUGUCACGCAAAACGCGUGCUCCGUUGAAUGGAGUUUAUCAUG | ≤ -4.2
GGGUCUUCUCGAUCUAACAAAAAAGACAACUCUGCCACAAAGCUUGAGAGUAUCGUCGGAAGCAGAGUCGGCAGCCUUCGGUCGCGCGAUAGCGCCAACGUUCUCAACUAUGACACGCAAAACGCGUGCUCCGUUGAAUGGGGUUUAUCAUG | ≤ -4.2
GGCUCUUCUCGAUCUAACAAAAAAGACAAAUCUGCCACAAAGCUUGAGAGCAUCUUCGGAUGCAGAGGCGGCAGCCUUCGGUGGCGCGAUAGCGCCAACGUUCUCAACUAUGACACGCAAAACGCGUGCUCCGUUGAAUGUAGUUUAUCAUG | 0.471
GGGUCUUCUCGAUCUAACAAAACUGACAAAUCUGCCACAAAGCUUGAGAGUAUCGUCGGAUGCAGAGGCGGCAGCCUUCGGUGAAGCGAUAUCGCCAACGUUCUCAACUAUGACACGCAAAACGCGUGCUCCGUUGAAUGGAGUUUAUCAUG | ≤ -4.2
GGGUCUUCUCGAUCUAACAAAAAUGACAAAUCUGCCACAAAGCUUGAGAGCAUCAUCGGAUGCAGAGGCGGCAGCCUUCGGUGGAGCGAUAGCGCCAACGUUCUCAACUAUGACACGCAAAACGCGUGCUCCGUUGAAUGGAGUUUAUCAUG | -2.17
GGGUCUUCUCGAUCUAACAAAAAUGACAAAUCUGCCACAAAGCUUGAGAGCAUCUUCGGAUGCAGAGGGGGCAGCCUUCGGUGGCGCGAUAGGGCCAACGUUCUCAACUAUGACACGCGAAACGCGUGCUCGGUUGAAAGGAGUUUAUCAUG | ≤ -4.2
GGCUCUUCUCGAUCAAACUAAAAAGACAAAUCUGCCACAAAGCUUGAGAGCAUCUUCGGAUGCAGAGGCGGCAGUCUUCGGUGGCGUGAUAGCGCCAACGUUCUCAACUAUGACACGCAAAACGCGUGCUCCGUUGAAUGGAGUUUAUCAUG | -1.71
GGGUCUUCUCGAUCUAACAAAUAAGACAAAUCUGCCACAUAGCCUGAGAGCAUCUUCGGAUGCAGAGGCGGCAGCCUUCGGUGGCGCGAUAGCGCGAACGUUCUCAACUAUGACAUGCAAAACGCGUGCUCCGCUGAAUGGAGUUUAUCAUG | ≤ -4.2
GGCUCUUCUCGAUCUAACAAAAAAGACAAAUCUGCCACAAAGCUUGAGAGCAUCUUCGGAAGCAGAGGCGGCAGCCUUCGGUGACGCGAUAACGCCAACGUUCUCAACUAUGACACGCACAACGCGUGCUCCGUUGAAUGGAGUUUAUCAUG | ≤ -4.2
GGGUUUUCUCGAUCUAACAAAAAAGACAAAUCUGUCACAAAGCUUGAGAGCAUCUUCGGAUGCAGAGGCGGCAGCCUUCGGUGGUGCGAUAGCGCCAACGUUCUCGACUAUGACACGCAAAACGCGUGCUCCGUUGAAUGGAGUUUAUCAUG | 0.235

Variant | polymerase ribozyme fitness (log ratio)
GGCUCUUCUCGAUCUAACAAAAAAGACAAAUCUGCCACAAAGCUUGAGAGCAUCUACGGAUGCAGAGGAGGCAGCCUUCGGUGGCGCGAUAGUGCCAACGUUCUCAACUAUGACACGCAAAACGCAUGCUCCGUUGAAGGGAGUUUAUCAUG | -2.53
GGCGCUUCUCGAUCUGACAAAAAAGACAAAUCGGCCACAAAGUUUGAGAGCAUCUUCGGAUGCAGAGGCGGCAGCCUUCGGUGGCGCGAUAUCGCCAACGUUCUCGACUAUGACACGCAAAACGCGUGCUCCGUUGAAUGGAGUUUAUCAUG | ≤ -4.2
GGGUGUUCUCGAUCUAACAAAAAAGACAAAUCUGCCACAAAGCUUGACAGCCUGUUCGGAUGCAGCGGCGGCAGCGUUCGGUGGCGCGAUAGCGCCAACGUUCUCAACUAUGACACGCAAAACGCGUGCUCCGUUGAAUGGAGUUUAUCAUG | ≤ -4.2
GGGUCUUGUCGAUCUAACAAAACAGACAAAUCUGCCACAAAGCUUGAGAGCAUAUUCGGAUGCAGAGGCGGCAGCCUUCCAUGGCGCGUUAGGGCCAACGUUCUCAACUAUGACACGCAAAACGCGUGCUCCGUUGAAUGGAGUUUAUCAUG | ≤ -4.2
GGGUCUUCUCGAUCUAAAGAAAAAGACAAAUCGGCCACAAAGCUUGAGAGCAUCUUCGGAUGCAGAGGCGGCAGCCUUCGGUGGCGCGAUAGCGCCAACGUUCUCAACUAUGACACGCAAAACGUGUGCUCCGUUGAAUGGAGUUUAUCAUG | ≤ -4.2
GGGUCUUCUCGCUCUAACAAAAAAGACAAAUCUGCCACAAAGCUUGAGAGCAUCUUCGGAUGCAGAGGCGGCAGCGUUCGGUGGCGCGAUAGAGCAAACGUUCUCAACUAUGACACGCAAAACGCGUGCUCCGUUCAAUGGAGUUUAUCAUG | ≤ -4.2
GGCUCGUCUCGAUCUAACAAAAAAGACAAAUCUGCCACAAAGCUUGAGAGCAUCUUUGGAUGCAGAGGCGGCACCCUUCGGUGGCGCGAUAGCGCCAACGUUCUCAACUAUGACACGCAAAACGCGUGCUCCGUUGAAUGGAGUUUAUUAUG | ≤ -4.2
GGCUCGUCUCGAUCUAACAAAAAAUACAAAUCUGCCACAAAGCUUGAGAGCAUCUUCGGAUGCAGAGGCGGCAGCCUUCGGUAGCGCGAUAGCGCCAACGUUCUCAACUAUGACACGCAAAACGCGUGCUCCGUUGAAUGGAGUUUAUCAUG | -3.47
GGCUCUUCUCGAUCGAACAAAAAGGACAAAUCUGCCACAAAGCUUGAGAGCAUCUUCGGAUGCAGAGGCGGCAGCCUUCGGUGGCGCGAUAGCGCCAACGUUCUCAACUAUGACACACAAAACGCGUGCUCCGUUGAAUGGAGUUUAUCAAG | ≤ -4.2
GGCUCUUCUCGAUCUAACAAAAAAGACAAAUCUGCCACAAAGCUUGAGAGCAUCUUCGGAUGCAGAGUCGGCAGCCUUCGGUGGCGCGAUAGAGCCAACGUUCUCAACUAUGACACGCAAAACGCGUGCUCCGUUGAAUGGAGUUUAUCAUG | ≤ -4.2
GGGUCUUCUCGAUCUCACAAAAAAGCCAAAUCUGCCACAAAGCUAGAGAGCAUCUUCGCAUGCAGAGGCGGCAGCCUUCGGUGGCCCGAUAGCGCCAACGUUCUCAACUAUGACACGCAAAACGCGUGCGCCGUUGAAUGGAGUGUAUCAUG | ≤ -4.2
GGGUCUUCUCGAUCUAACAGAAAAGACAAAUCUGCCACAAAGCUUGACACCAUCUUCGGAUGCAGACACGGCAGCCUUCGGUAGCGCGAUAGCGCCAACGUUCUCAACUAUGACACGCAAAACGCGUGCUCCGUUGAACGGAGUUUAUCAUG | ≤ -4.2
GGGUCUUCUCGAUCUAUCAAAAAAGACAAAUCUGCCACAAAGCUUGUGAGCAUCGUCGGAUGCAGAGGCGGCAGCCUUCGGUGGCGCGAUAGCGCCAACGUUCUCAACUAUGACACGCAAAACGCGUGCUCCGUUGAAUGGAGUUUAUCAUG | -0.403
GGCUCUUCACAAUCUAACAAAAAAGACAAAUCUGGCACAAAGCUUGAGAGCAUCUUCGGAUGCAGAGGCGGCAGACUUCGGUGGCGCGAUAGCGCCAACGUUCUCAACUAUGACACACAAAACGCGUGCUCCGUUGAAUGGAGUCUAUCAUG | ≤ -4.2
GGCUCGUCUCGAUCUAACAAAAAAGACAAAUCUGCCACAAAGCUUGAGCGCAUCUUCGGAUGCAAAGGCGACAGCCUUCGGUGGCGCCAUAGAGCCAACGUUCUCAACUAUGACACGCAAAACGCGUGCUCCGUCGAAUGGAGUUUAUCAUG | ≤ -4.2
GGCUCGUCUCGAUCUAACAAAAUAGACAAAUCUGCCACGAAGCAUGAGAGCAUCUUCGGAUGCAGAGGCGGCAGCCUUCGGUGGCGCGGUAGCGCCAACGUUCUCAACUAUGACAGGCAAAACGCGUGCUCCGUUGAAUGGAGUUUAUCAUG | ≤ -4.2
GGGUCUUCUCGAUCUAACAUAAAAGACAAAUCUGCAACAAAGCUUGAGAGCAUCUUCGGAUGCAGAGGCGGCAGCCUUCGGUGGCGGGAUAGCGCCAACGUUCUCAACUAUGACACGCAAAACGCGUGAUCCGUUGAACGGAGUUGAUCAUG | ≤ -4.2
GGGUCUUGUCGAUCUAACAAAUAAGGCAAAUCUGCCACAAAGCUUCAGAGCAUCUUCGGAUGCAGAGGCGGCAGCCUUCGGUGGCGCGAUAGCGCUAACGUUCUCAACUAUGACACGCAAAACGCGUGCUCCGUUGAAUGGAGUUUAUCAUG | ≤ -4.2
GGGUCUUCUCGAUCUAACAAAAACGACAAAUCUGCCACAAAGCUUGAGAGCAACUUCGGAAGCAGAGGCGGCAGCCUUCGGUGGGGCGAUAGCGCCAACGUUCUCAACUAUGACACGCAAAACGCGUGCUCCGUUGAAUGGAGUUUAUCAUG | ≤ -4.2
